Common to all, as to assay type: cell-based
What all share (details): mutant expressed transiently in tobacco cells, immunostaining of nuclei, at least 30 nuclei per transfection

The subject of one experiment is H3K4me2. Briefly: H3K4 demethylation assay in tobacco cells of JMJ703 substitution mutants, H3K4me2. The procedure:
(§1) The cDNA fragment of the J3NCZ region was amplified using primers FAJ3NCZ-F and FAJ3NCZ-R and then cloned into pFA121 vector modified from pBI121 (GenBank: AF485783.1), in which GUS was replaced by 2×FLAG∶2×HA tag. The pFA121-J3NCZ plasmid was transferred into Agrobacterium tumefaciens strain EHA105 cells for tobacco infection with the help of Agrobacterium cells harboring P19 plasmids. For in vivo histone demethylation assay, tobacco infection and nuclei isolation were performed as previously described. The immunostaining protocol was modified from http://sites.bio.indiana.edu/~pikaardlab. Briefly, the nucleus solution was placed on a poly-lysine coated slide, air dried, and then refixed with 4% formaldehyde in KPBS (1.28 M NaCl, 20 mM KCl, 80 mM Na2HPO4, 20 mM KH2PO4, pH7.2) containing 1% Triton X-100 for 20 min. After 3 washes with KPBS-1% Triton, slides were blocked with blocking solution (1% BSA in KPBS-1% Triton) and incubated at 37°C for 30 min. The blocking solution was washed off with KPBS-1% Triton and the slides were incubated with both anti-HA and histone méthylation specific antibodies diluted in blocking solution to 1∶300 at 4°C overnight. After washing with KPBS, slides were blocked and incubated with fluorescent-labeled antibodies at 37°C for 2 h. After washing with KPBS thrice, nuclei were stained with 5 µg/mL 4,6-diamidino-2-phenylindole (DAPI), coated with a drop of VECTASHIELD Mounting Medium (H-1000, Vector Laboratories), and then covered with a coverslip followed by confocal microscope (Leica) detection. In vitro histone demethylation assays were performed as previously described. FA-J3NCZ was purified after overexpression with Anti-FLAG M2 magnetic beads according the manufacturer's instruction (Sigma).
(§2) Supplementary file pgen.1003239.s006.tif: Figure S6 Demethylation assays for JMJ703 substitution mutants that have been produced based on the structural data. The mutant names are labeled at the top left corner of each panel. Image panels from left to right are staining by DAPI, anti-HA and anti-methylated histones, respectively. Bar = 10 µm. At least 30 nuclei that expressed JMJ703 per transfection were observed and imaged. (TIF) Click here for additional data file.

For the next experiment, the system named is H3K4me1. In words: H3K4 demethylation assay in tobacco cells of JMJ703 substitution mutants, H3K4me1. The procedure: as §1, §2
In the next experiment the test system is H3K4me3. In words: H3K4 demethylation assay in tobacco cells of JMJ703 substitution mutants, H3K4me3. The procedure: as §1, §2

B1: Y383A: JMJ703 substitution mutant, methyl group-binding residue (protein, UniProt Q53WJ1 1-1238, looked up, variant Y383A)
Lysine-specific demethylase …: MMGVTTTLNEDTEPSIPPGFGPFATLPLWGIHNDAKPAVTHSTPVQALQSIRKDSEECQPSAAVSRSDTPCSTSGTQTCRKSLRNRPPIDYSRFEHISDEDSDVEIVEKDVSSTRRRQQLPKGVLRGCAECSDCQKVIAKWNPAGARRPVLDEAPVFYPTEEEFEDTLKYIESIRPMAEPYGICRIVPPSSWKPPCLLKDKSIWEGSKFSTRVQKVDKLQNRKSSKKGRRGGMMKRRKLAESEENSATAHTQTGMQQSPERFGFEPGPEFTLQTFQKYADDFSKQYFRKDTSMDSVPSVEDIEGEYWRIVEVPTEEIEVIYGADLETGTFGSGFPKLSPETKSDAEDKYAQSGWNLNNLPRLQGSVLSFEGGDISGVLVPWVAVGMCFSSFCWHVEDHHLYSLNYMHWGAPKLWYGVPGKDAVNLESAMRKHLPELFEEQPDLLHNLVTQFSPSLLKSEGVHVYRCVQHEGEFVLTFPRAYHAGFNCGFNCAEAVNVAPIDWLPIGHNAVELYREQARKITISHDKLLLGAAREAIRAQWDILFLKRNTADNMRWKSICGADSTIFKALKARIETELVQRKTLGVPAQSRKMDAEFDSIDRECALCYYDLHLSASGCPCCPEKYACLVHAKQLCSCDWDKRFFLFRYDVNELNILADALGGKLSAIHRWGVSDLGLSLSSCVKREKVQDSKTVRRLTDGPRRSYMSQASAVSLVSSSTSNEQKDEGNKIMKIASPQTNNVCPSVEQRKSENISPLKEPCVRNELSCTTNSDSNGLQYNGGLGGHKGSAPGLPVSSSPSFSSNVATRPISTSSVSMKIVQGLVASKSCIQASSRTGDSRSLLGEHHNRSPAMIHDGTNMKSSLESSNNSCRLIASDYNATPCHSSKDQVLVTPGTNASVVTLKDSSQVHSASSQQFVRTGPWTQSASHEASSPSTSALKPSLDPPAMKNLYGGFTQGSAHPGPPSFSNQQPNDGRLQRTSESLPGVEARARGHPTVTAQPALEIHSRNGGAQKGPRIANVVHRFKCSVEPLEIGVVLSGRLWSSSQAIFPKGFRSRVKYFSIVDPIQMAYYISEILDAGMQGPLFMVKLENCPGEVFINLSPTKCWNMVRERLNMEIRRQLNMGKSNLPTLQPPGSVDGLEMFGLLSPPIVQAIWARDRDHICTEYWRSRPHVLIEDPNNRHMLSQGPPLLALRGLIQRANRDELQVLRSLMTNSNNLDDSSRQQAAHIIEEEIAKQLC
Consider B1, for which the H3K4me2 demethylation activity result in the experiment on H3K4me2 is “yes”. Also, the H3K4me1 demethylation activity entry in the experiment with H3K4me1 is reported as “no”. Also, in the experiment with H3K4me3, the H3K4me3 demethylation activity entry is reported as “no”.

B2: E396A: JMJ703 substitution mutant, methyl group-binding residue (protein, UniProt Q53WJ1 1-1238, looked up, variant E396A)
Lysine-specific demethylase …: MMGVTTTLNEDTEPSIPPGFGPFATLPLWGIHNDAKPAVTHSTPVQALQSIRKDSEECQPSAAVSRSDTPCSTSGTQTCRKSLRNRPPIDYSRFEHISDEDSDVEIVEKDVSSTRRRQQLPKGVLRGCAECSDCQKVIAKWNPAGARRPVLDEAPVFYPTEEEFEDTLKYIESIRPMAEPYGICRIVPPSSWKPPCLLKDKSIWEGSKFSTRVQKVDKLQNRKSSKKGRRGGMMKRRKLAESEENSATAHTQTGMQQSPERFGFEPGPEFTLQTFQKYADDFSKQYFRKDTSMDSVPSVEDIEGEYWRIVEVPTEEIEVIYGADLETGTFGSGFPKLSPETKSDAEDKYAQSGWNLNNLPRLQGSVLSFEGGDISGVLVPWVYVGMCFSSFCWHVADHHLYSLNYMHWGAPKLWYGVPGKDAVNLESAMRKHLPELFEEQPDLLHNLVTQFSPSLLKSEGVHVYRCVQHEGEFVLTFPRAYHAGFNCGFNCAEAVNVAPIDWLPIGHNAVELYREQARKITISHDKLLLGAAREAIRAQWDILFLKRNTADNMRWKSICGADSTIFKALKARIETELVQRKTLGVPAQSRKMDAEFDSIDRECALCYYDLHLSASGCPCCPEKYACLVHAKQLCSCDWDKRFFLFRYDVNELNILADALGGKLSAIHRWGVSDLGLSLSSCVKREKVQDSKTVRRLTDGPRRSYMSQASAVSLVSSSTSNEQKDEGNKIMKIASPQTNNVCPSVEQRKSENISPLKEPCVRNELSCTTNSDSNGLQYNGGLGGHKGSAPGLPVSSSPSFSSNVATRPISTSSVSMKIVQGLVASKSCIQASSRTGDSRSLLGEHHNRSPAMIHDGTNMKSSLESSNNSCRLIASDYNATPCHSSKDQVLVTPGTNASVVTLKDSSQVHSASSQQFVRTGPWTQSASHEASSPSTSALKPSLDPPAMKNLYGGFTQGSAHPGPPSFSNQQPNDGRLQRTSESLPGVEARARGHPTVTAQPALEIHSRNGGAQKGPRIANVVHRFKCSVEPLEIGVVLSGRLWSSSQAIFPKGFRSRVKYFSIVDPIQMAYYISEILDAGMQGPLFMVKLENCPGEVFINLSPTKCWNMVRERLNMEIRRQLNMGKSNLPTLQPPGSVDGLEMFGLLSPPIVQAIWARDRDHICTEYWRSRPHVLIEDPNNRHMLSQGPPLLALRGLIQRANRDELQVLRSLMTNSNNLDDSSRQQAAHIIEEEIAKQLC
In the case of B2, the H3K4me2 demethylation activity result with H3K4me2 is “no”. Moreover, the H3K4me1 demethylation activity result in the experiment on H3K4me1 was “no”. Moreover, the H3K4me3 demethylation activity result with H3K4me3 was “no”.

B3: N496A: JMJ703 substitution mutant, methyl group-binding residue (protein, UniProt Q53WJ1 1-1238, looked up, variant N496A)
Lysine-specific demethylase …: MMGVTTTLNEDTEPSIPPGFGPFATLPLWGIHNDAKPAVTHSTPVQALQSIRKDSEECQPSAAVSRSDTPCSTSGTQTCRKSLRNRPPIDYSRFEHISDEDSDVEIVEKDVSSTRRRQQLPKGVLRGCAECSDCQKVIAKWNPAGARRPVLDEAPVFYPTEEEFEDTLKYIESIRPMAEPYGICRIVPPSSWKPPCLLKDKSIWEGSKFSTRVQKVDKLQNRKSSKKGRRGGMMKRRKLAESEENSATAHTQTGMQQSPERFGFEPGPEFTLQTFQKYADDFSKQYFRKDTSMDSVPSVEDIEGEYWRIVEVPTEEIEVIYGADLETGTFGSGFPKLSPETKSDAEDKYAQSGWNLNNLPRLQGSVLSFEGGDISGVLVPWVYVGMCFSSFCWHVEDHHLYSLNYMHWGAPKLWYGVPGKDAVNLESAMRKHLPELFEEQPDLLHNLVTQFSPSLLKSEGVHVYRCVQHEGEFVLTFPRAYHAGFNCGFNCAEAVAVAPIDWLPIGHNAVELYREQARKITISHDKLLLGAAREAIRAQWDILFLKRNTADNMRWKSICGADSTIFKALKARIETELVQRKTLGVPAQSRKMDAEFDSIDRECALCYYDLHLSASGCPCCPEKYACLVHAKQLCSCDWDKRFFLFRYDVNELNILADALGGKLSAIHRWGVSDLGLSLSSCVKREKVQDSKTVRRLTDGPRRSYMSQASAVSLVSSSTSNEQKDEGNKIMKIASPQTNNVCPSVEQRKSENISPLKEPCVRNELSCTTNSDSNGLQYNGGLGGHKGSAPGLPVSSSPSFSSNVATRPISTSSVSMKIVQGLVASKSCIQASSRTGDSRSLLGEHHNRSPAMIHDGTNMKSSLESSNNSCRLIASDYNATPCHSSKDQVLVTPGTNASVVTLKDSSQVHSASSQQFVRTGPWTQSASHEASSPSTSALKPSLDPPAMKNLYGGFTQGSAHPGPPSFSNQQPNDGRLQRTSESLPGVEARARGHPTVTAQPALEIHSRNGGAQKGPRIANVVHRFKCSVEPLEIGVVLSGRLWSSSQAIFPKGFRSRVKYFSIVDPIQMAYYISEILDAGMQGPLFMVKLENCPGEVFINLSPTKCWNMVRERLNMEIRRQLNMGKSNLPTLQPPGSVDGLEMFGLLSPPIVQAIWARDRDHICTEYWRSRPHVLIEDPNNRHMLSQGPPLLALRGLIQRANRDELQVLRSLMTNSNNLDDSSRQQAAHIIEEEIAKQLC
With B3, the H3K4me2 demethylation activity result in the experiment on H3K4me2 is recorded as “yes”. For the same molecule, the H3K4me1 demethylation activity result with H3K4me1 is on record as “no”. For the same molecule, in the experiment on H3K4me3, the H3K4me3 demethylation activity result is recorded as “yes”.
